Measured values as given in the nanobody polyreactivity screen of Harvey et al. (2022).

Experiment: yeast display, Sf9 membrane polyspecificity reagent, FACS + sequencing; frameworks hold sequencing errors
How it was run: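 Sorting gates, low and high (top ~1%), were placed on anti-HA fluorescence to track expression and on streptavidin fluorescence to track reagent binding. A clone's polyreactivity label is taken from the gate it came out of. The reagent was 10% biotinylated, detergent-solubilized Sf9 membrane, applied for 1 hour at 4 °C to galactose-induced yeast display cells.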
In the case of “QVQLVESGGGSVQAGGSLRLSCAASGFTIRTYAMGWYRQAPGKESELVAAITSSGSSTYYAYSVKGRFTISRDNAKNTVYLQMNSLKPEDTAVYYCAADAPRSYRFGYWGQGTQVTVSS”, the “polyreactivity (PSR sort gate)” value is reported as “high polyreactivity”.
For “QVQLVESGGGVDQAGGSLRLSCAASGLSLRVNVMGWYRPAPGKERELVAAISGGGRTYYADSVKGRFTISRDNAKNTVYLQMNSLKPEDTAVYYCATVRRRLSLTYDYWGQGTQVTVSS”, the “polyreactivity (PSR sort gate)” value was “high polyreactivity”.
In the case of “QVQLVESGGGVQAGGSLRLSCAASGRTFVPYAMGWYRQAPGKERELVAAISSIGDSTSYADSVKGRFTISRDNAKNTVYLQMNCLKPEDTAVYYFAAAEDRDRLVPKLDYWGQGTQVTVSS”, the “polyreactivity (PSR sort gate)” value is reported as “low polyreactivity”.
In the case of “QVQLVESGGGVVQAGGSLRLSCAASGFIFEYYPMGWYRPAPGKERELVAAISWSGGSTYYADSVKGRFTISRDNAKNTVYLQMNSLKPEDTAVYYCAAGRYFHHPTSYYYWGQGTQVTVSS”, the “polyreactivity (PSR sort gate)” value is reported as “high polyreactivity”.
In the case of “QVQLVESGGGVVQAGGSLRLSCAASGFIFYQYAMGWYRQAPGKERELVAAITSRGGRTYYADSVKGRFTISRDNAKNTVYLQMNSLKPEDTAVYYCAVRKASDYYYWGQGTQVTVSS”, the “polyreactivity (PSR sort gate)” value is reported as “high polyreactivity”.
With “QVQLVESGGGVVQAGGSLRLSCAASGFTFVRYTMGWYRQAPGKERELVAAITKRGGSTYYADSVKGRFTISRDNAKNTVYLQMNSLKPEDTAVYYCAAAVGNTDREYDYWGQGTQVTVSS” the “polyreactivity (PSR sort gate)” value was “low polyreactivity”.
For “QVQLVESGGGVVQAGGSLRLSCAASGIIFYRYAMGWYRQAPGKERELVARITNGGNTYYADSVKGRFTISRDNAKNTVYLQMNSLKPEDTAVYYCAVRVFGYSPYSNWMYYWGQGTQVTVSS”, the “polyreactivity (PSR sort gate)” value was “high polyreactivity”.
For “QVQLVESGGGVVQAGGSLRLSCAASGITFTVNAIGWYRQAPGKDREFFAAITYSGGNTYYADSVKGRFTISRDNAKNTVYLQMNSLTPEDTAVYYCNSDSAVGIVGARFFYDYWGQGTQVTVSS”, the “polyreactivity (PSR sort gate)” value was “low polyreactivity”.
In the case of “QVQLVESGGGVVQAGGSLRLSCAASGITLAWYAMGWSRQAPGKERELVAAINSGGSTYYADSVKGRFTISRDTAKNTVYLQMNSLKPEDTAVYYCNTDDDSSSTGYYSWGQGTQVTVSS”, the “polyreactivity (PSR sort gate)” value is reported as “low polyreactivity”.
For “QVQLVESGGGVVQAGGSLRLSCAASGITYGRNTMGWYIHAPGKERELVAAIDSGGNTYADSVKGRFTISRDNAKNTVYLQMNSLKPEDTAVYYGAATFIQVVVNVQLYDYDYWGQGTQVNVSS”, the “polyreactivity (PSR sort gate)” value was “low polyreactivity”.
For “QVQLVESGGGVVQAGGSLRLSCAASGLIFRRYAMGWSRQAPGIDRELVAAISGNGGSTYYADSVKGRFTISRDNAKNTVYVQMTCLKPEDTAVYYCAARSLGIYNYWGQGTQVTVSS”, the “polyreactivity (PSR sort gate)” value was “high polyreactivity”.
With “QVQLVESGGGVVQAGGSLRLSCAASGRIFPYNAMGWYRQAPGKERELVAAISSGGSTTYADSVKGRFTISRDNAKNTVYLHMNSLKPEDTAVYYCAREVYRHYAPVGYDYWGQGTQVTVSS” the “polyreactivity (PSR sort gate)” value was “high polyreactivity”.
In the case of “QVQLVESGGGVVQAGGSLRLSCAASGRIFRYYAMGWYRQAPGKERELVAGITTGGGSTYYADSVKGRFTISRDNAKNTVYLQMNSLKPEDTAVYYCAARYYTTFYWGQGTQVTVSS”, the “polyreactivity (PSR sort gate)” value is reported as “high polyreactivity”.
For “QVQLVESGGGVVQAGGSLRLSCAASGRIFSVYAMVWYRQAPGKEREFVGSISWRGGRTYYADSVKGRFTISRDNAKNTVYLQMISLKPEDTAVYYCAAVSYPAVYGFDYWGQGTQVTVSS”, the “polyreactivity (PSR sort gate)” value was “high polyreactivity”.
With “QVQLVESGGGVVQAGGSLRLSCAASGRTFCIYAMGWYRPAPGKEREVVAAITGRGGSTHYADSVKGRFTISRDNAKNTVYLQMNSLKPEDTAVYYGAADYRYNRGITSNKDYDYWGQGTQVTVSS” the “polyreactivity (PSR sort gate)” value was “low polyreactivity”.
With “QVQLVESGGGVVQAGGSLRLSCAASGRTFGWNTMGWYRQAPGKERELVAAISYSTGRTYYADSVKGRFTISRDNAKYTVYLQMNSLKPEDTAVYYCAATRPYRYNYWGQGTQVTVSS” the “polyreactivity (PSR sort gate)” value was “high polyreactivity”.
For “QVQLVESGGGVVQAGGSLRLSCAASGRTFRRNAMGWYRQAPGKERELVAAITSSGGSTYYADSVKGRFTISRDNAKNTVYFQMNSLKPEDTEVYYCNAFYTGRSAPDSWGQGTQVTVSS”, the “polyreactivity (PSR sort gate)” value was “high polyreactivity”.
With “QVQLVESGGGVVQAGGSLRLSCAASGSHFISNAMGWYRQAPGKERELVAAITSSGGSTYYADSVKGRFTISRDNAKNTVYLQMNSLKPEVTAVYYCAARPGRNYYYWGQGTQVTVSS” the “polyreactivity (PSR sort gate)” value was “high polyreactivity”.
For “QVQLVESGGGVVQAGGSLRLSCAASGSIFNRYAMGWYRQAPGKERELVAATSSGGSTYYADSVKGRFTISRDNAKNTVYLQMNSLKPEDTAVYYCAARSRYRSTPPTYDYWGQGTQVTVSS”, the “polyreactivity (PSR sort gate)” value was “low polyreactivity”.
For “QVQLVESGGGVVQAGGSLRLSCAASGSIFRRNAMGWYRQAPGKERELVAAISWTTGSTYYADSVKGRFTISRDNAKNTVYLLMNSLKAEDTSVYYCAAVIRSRYSYYEYDFWGQGTKVTVSS”, the “polyreactivity (PSR sort gate)” value was “high polyreactivity”.
For “QVQLVESGGGVVQAGGSLRLSCAASGSTFTTNAMGWYRQAPGKDREFVAAIRRTSGRTYYADSVKGRFTISRDNAKNTVYLQMNSLKPEDTAVFYCATDSYSPYGLKSRYDYWGQGTQVTVSS”, the “polyreactivity (PSR sort gate)” value was “high polyreactivity”.
In the case of “QVQLVESGGGVVQAGGSLRVRCAASGIIYFIDYAMGWYRQAPGKERELVAAITSGGSTNYADSVKGRFTISRDNAKYTVYLQKNRLKPEDTAVYYCAAYLYSGSQYYFWGQGTQVIVSS”, the “polyreactivity (PSR sort gate)” value is reported as “high polyreactivity”.
With “QVQLVESGGGVVQAGGSLRVSCAASGRIFYGNAMGWYRQAPGKERELVAVISSGGSTYYADSVKGRFTISRDNAKNTVYFQMNSLKPEDTAVYYCAAQVRKYKDGSFRYHYWGQGTQVNVSS” the “polyreactivity (PSR sort gate)” value was “high polyreactivity”.
In the case of “QVQLVESGGGVVQAGRSLRLSCAASGSTFWAYLMGWYRQAPGIERELVASISRGGSTNYTDSVKGRFTISRDNAKNTVYLQMNSLKPEDTEVYYCAKRPYPYKYDYWGQGRQVTVSS”, the “polyreactivity (PSR sort gate)” value is reported as “high polyreactivity”.
In the case of “QVQLVESGGGVVQARGSLRLSCAASGSTFDVNAMGWYRQAPWKDRELVAAISWNSGTTYYADSVKGRFTISRDNAKNSVYLQMNSLKPEDTAVYYCAASYGTGRRSKYGYWGQGTQVTVSS”, the “polyreactivity (PSR sort gate)” value is reported as “high polyreactivity”.
With “QVQLVESGGPLVQAGGSLLLSCAASGFTFTVYAKGWYRQAPGKERELVAAITYNGGSTYYADSVKGRFTISRDNAKNTVYLQMNSLKPEDTAVYYCAAEVFLRSLGYWYDFWGLGTQVTVSS” the “polyreactivity (PSR sort gate)” value was “high polyreactivity”.
In the case of “QVQLVESGGRIVQAGGSLRLICAASGRIFVRNAMGWYRQAPGKERELVAAITTSGGRTYYADSVKGRFTISRDNAKNTVYLQMNSLKPEDTAVYYCAADTRYRNYPYYYWGQGTQVTVSS”, the “polyreactivity (PSR sort gate)” value is reported as “high polyreactivity”.
For “QVQLVESGGRIVQAGGSLRLICASSGLIFYDNMGWYRQAPGKERELVAAISSSGGSRTYADSVKGRFTISRDNAKNTVYLQMNSLKPEDTAVYYCAVDKHYYGRYGVTYDYDYWGQGTQVTVSS”, the “polyreactivity (PSR sort gate)” value was “low polyreactivity”.
For “QVQLVESGGRIVQAGGSLRLSCAASGFIYSKYAMGWSRPAPGKEGQLVAAISSSGGYTYYADSVKGRFTISRDNAKNTVYLQMNSLKPEATAVYYCNADYLFYAFDYWGHGTQVTVSS”, the “polyreactivity (PSR sort gate)” value was “low polyreactivity”.
With “QVQLVESGGRIVQAGGSLRLSCAASGSTFLYYDMGWYRQAPGKERELVAAITNGGNTYYADSVKGRFTISRDNAKNTVYLQKNSRKPEDTAVYYCAKLYTDAIVWSAYDYWGQGTQVTVSS” the “polyreactivity (PSR sort gate)” value was “low polyreactivity”.
In the case of “QVQLVESGGRLFQAGGSLRLSCAACGFTIPYYAMRWYRKAPGKERELVAAIDWTGGSTYYADSVKGRFTISRDKAKNTVYLQMNSRKPEETEVYYCAREVDYSISSPTPPVVELDYWGQGTQVTVSS”, the “polyreactivity (PSR sort gate)” value is reported as “low polyreactivity”.
In the case of “QVQLVESGGRLFQAGGSLRLSCAASGRIFYHNALGWYRQAPGKERELVADNASGGSTYYADSVKARFTISRDNAKNTVYLQMNSLKPEDTAVYYCAAEDEDSIFPFPYGAGSLFDFWGQGTQVTVSS”, the “polyreactivity (PSR sort gate)” value is reported as “low polyreactivity”.
In the case of “QVQLVESGGRLGQAVGSLRLSCAASGSIFLQNAMGWYRQAPGKERELVAAITNGGSTNYADSVKGRCTISRDNAKNTVYLQINSLKPEDTAVYYCAAYPLYTGSYDRGGYWGLGTQVTVSS”, the “polyreactivity (PSR sort gate)” value is reported as “low polyreactivity”.
For “QVQLVESGGRLVEAGGSLRLSCAASGRTIPAYALGWYRQAPGKERELVAGISYRGGSTYYADSVKGRFTISRDKAKNTVYLPMNSLKPEDTAVYYCARVYSRNKGVYWGQGTQVPVSS”, the “polyreactivity (PSR sort gate)” value was “low polyreactivity”.
With “QVQLVESGGRLVQAGGILRLSCAASGLTFADNAMGWYRQAPGKERELVATISYSGGSTYYADSVKGRFTISRDNAKNTVYLQMNSLKPEDTAVYYCATVWETKAYSRIQWYYYWGQGTQVTVSS” the “polyreactivity (PSR sort gate)” value was “low polyreactivity”.
For “QVQLVESGGRLVQAGGRLRLSCAASGFTFGSYAMGWYRQAPGKERELVPSISSAGRTYYADSVKGRFTISRDNAKNTVYLQMNSLKPEDTAVYYCNTDSRVTIYDYDYWGQGTQVTVSS”, the “polyreactivity (PSR sort gate)” value was “low polyreactivity”.
With “QVQLVESGGRLVQAGGSIRLICAASGFTFIGYAMGWYRQAPGKERELVADITYSGSSTYYADSVKGRFTISRDNAKNTVYLQMNSLKPEDTAVYYCAAEAYYYCFDVDYWGQGTLVTVSS” the “polyreactivity (PSR sort gate)” value was “low polyreactivity”.
For “QVQLVESGGRLVQAGGSLLLSCAASGIIFYDYAMGWYRRAPGKERQLVAAITSGGSTNYADSVKGRFTISRDNAKNTVYLQMNSLKPEDTAVYYCAATYWSWISLRWYEYYYWGEGTQVTVSS”, the “polyreactivity (PSR sort gate)” value was “low polyreactivity”.
For “QVQLVESGGRLVQAGGSLRLLCAASGLILHKYAMGWYRQAPGKERELVASINSGANTNYADSVKGRFTISRDNAKNTVYLQMNSLKPEDTAVYYCNADPGFRSGDYGYSSFDYGGQGTQVTVSS”, the “polyreactivity (PSR sort gate)” value was “low polyreactivity”.
For “QVQLVESGGRLVQAGGSLRLRCAASGRIIAYYAMGWYRQAPGKERELVAAISRSGGSTYYADSVKGRFTISRDTAQNYVYLQMNSLKPEDTAVYYCAASLIVPYATMNYWGQGTQVTVSS”, the “polyreactivity (PSR sort gate)” value was “high polyreactivity”.
With “QVQLVESGGRLVQAGGSLRLSCAAAGSTIPKYAMGWYRQPPGKERELVAAITWRGGSTYYADSVKGRFTISRDNAKNTVYLQMNSLKPEDTAVDYCAAEPYYPSRMDYWGQGTQVTVSS” the “polyreactivity (PSR sort gate)” value was “low polyreactivity”.
In the case of “QVQLVESGGRLVQAGGSLRLSCAASGFIFPRYTRGWYRQAPGKESELVAGITLRGGSTYYADSVKGRFTISRDNAKNTVYLQMNSLKPEDTAVYYCARGISRGRSFGIGYDYWGQGTQVTVSS”, the “polyreactivity (PSR sort gate)” value is reported as “low polyreactivity”.
In the case of “QVQLVESGGRLVQAGGSLRLSCAASGFIFSRYAMGWSRQAPGKERELVAAISRGGSTNYADSVMGRFTISRDNAKNTVYLQMNSLKPEDTAVYYCAVRQIVRYYYWGQGTQVTVSS”, the “polyreactivity (PSR sort gate)” value is reported as “high polyreactivity”.
